Results from the Human Domainome abundance scans (Beltran et al. 2025).

B1: SAM and SH3 domain-containing protein 1, residues 630 to 700; numbered along this chain, O94885 (parent)
chain: GRPPQPKSVEDLLDRINLKEHMPTFLFNGYEDLDTFKLLEEEDLDELNIRDPEHRAVLLTAVELLQEYDSN

Variants of: B1
Test: abundance fitness (aPCA) (normalised: wild type 0, dead -1); higher = more abundant; growth selection in yeast, the domain comes from the species named
Conditions: Homo sapiens

Abundance fitness, by site and new letter:
Q66: R 0.33, G -0.197, S -0.331, N 0.059, M -0.422, K 0.267, L -0.351, D -0.49, W -0.21, I -0.563, V -0.587
L65: T -0.767, Q -0.707, V -0.452, G -0.808, I -0.433, F -0.696, E -0.758, R -0.82, Y -0.961, K -0.812, H -0.853, P -0.88, D -0.511, S -0.69, C -0.538, W -0.959, N -0.841, A -0.625
V57: R 0.418, N 0.15, Q 0.251, P -0.484, A 0.394, H -0.166, F -0.747, E 0.196, G -0.195, W -0.397, D 0.089, I -0.059, T 0.232, C 0.107, M 0.067, S 0.243, L 0.199
T60: Q 0.266, S 0.227, E 0.398, W -0.378, A 0.242, M -0.385, D 0.245, N 0.348, R 0.237, P -0.63, Y -0.449, G 0.071, F -0.613, L -0.579, H 0.302, C -0.293, I -0.927, V -0.735
L58: S -0.516, F -0.596, Y -0.905, H -0.53, V -0.53, Q -0.468, M -0.717, N -0.51, G -0.667, R -0.651, C -0.82, D -0.347, I 0.167, A -0.531, W -0.819, T -0.72, K -0.588, P -0.501
E67: S 0.039, L -0.468, M -0.342, T -0.048, W -0.438, I -0.492, R -0.167, D 0.02, Y -0.396, C -0.3, F -0.609, N -0.1, H -0.165, P -0.457, A -0.082, V -0.232, G -0.107, K -0.094
V62: W -0.8, Y -0.82, H -0.596, M -0.648, A -0.091, E -0.489, Q -0.769, K 0.005, T -0.476, F -0.916, N -0.578, C -0.241, D -0.607, L -0.647, G -0.524, I -0.14, P -0.517
L64: H 0.222, N 0.295, T 0.166, F -0.117, W 0.148, K 0.264, I -0.393, E 0.483, D 0.33, A 0.343, P -0.595, R 0.199, C 0.019, M 0.193, V -0.234, S 0.31
D69: Y -0.644, I -0.836, G -0.132, Q -0.262, A -0.386, C -0.479, W -0.752, V -0.971, K -0.29, F -0.811, N -0.289, T -0.358, R -0.531, M -0.822, H -0.327, S -0.296, P -0.081
A61: D -0.787, Q -0.036, W -0.287, P -0.731, C -0.483, N -0.479, Y -0.609, M -0.324, V -0.644, T -0.479, E 0.074, R -0.904, S -0.225, I -0.983, F -0.759, H -0.497, L -0.997
